Test results published in the domain aggregation screens of Martell et al. (2025).

Assay: soluble fraction after stress (log2 fold change); higher = more stays soluble; pooled small domains, quantitative proteomics
Conditions: stress: pH 4
Summary of the method: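 Pooled custom libraries of small protein domains were stressed at pH 4 and then measured by high-throughput quantitative proteomics. The fold change in the amount of each domain that stays soluble after the acid stress serves as a measure of aggregation propensity. Fold changes are given on a log2 scale, and higher values mean more of the domain stayed soluble.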

First: HMSDAIQLEQKIGLEAIEWYLALSEQTDDKLLYQQWQSWLAADPQHQLAWSRIEQVNHGLNTL
Second: HMKEEVEILGGKATIYTNDYGVWQFRLWLTTDNKYVRKSLRTKVKDYAITEGEKLYIQIRSDIEKGIKYY
The “soluble fraction (log2)” value of the first is lower: -0.9 for the first, -0.077 for the second.

“HMSILEIFGRNVQKYRKEQRLSQEKLAEYAGLHRTYIGMIERAEKNITLVNIEKIAKALNINLTKLLE” and “HMAAQDIILKRNAEQIEAIVKEITDTDVKYRKFTNTEGVTYSIRRSEVFSITYENGTMDLFA” are within 0.2 log units of each other in “soluble fraction (log2)” value: 0.0741 for the first, 0.206 for the second.

Going from “HMGQELTPVERTALDIAARDGKVSTRILAQEAGIGLRTASKTLAALAERGLLTWHGTSRRDPQQHYTS” to “HMAPLATIHVSSLSQKPFYLYGTFEDRRGNHLFFLEQIMGENKSIPVAMPSSAINPKIHASLTPPKG”, the “soluble fraction (log2)” value falls from 0.154 to -0.0804.

First: HMKSLLSRREQEVLELVSRGFSYSEIAELKNLSVHTIQTHIKSLYGKLEVHSKMEAVLEATRMGLLPQ
Second: HMEVKEVDYSAFMTMTEENSISKVEIEENQILFKKKGDDQTTYKTARMDDPALITRLHDQGVDFTGQ
The “soluble fraction (log2)” value of the first is lower: -1.12 for the first, 0.0244 for the second.

First: HMIDAHTTLLAKRLESKGFLALTDKSSAEEIYEEFGISKKAFKKALGALYKERLVRIGEDGVVWM
Second: HMAEPYDEDKVMEHLYIKGKDVVIAHLKHLKEHNEHVWLKKGVEWMQKNQDRLGFDMMEVIYVVHNH
The “soluble fraction (log2)” value of the first is higher: -0.721 for the first, -1.18 for the second.

“HMKRLQEQAYDYLKELILSGKMIENEIYSETKLASEIGISRTPIRDALQRLSQDGFIDIIPSKGFRIH” and “HMNKEKLLEMFESMSIIIVQSLEEKEQTEDRIETELFNEAKTPRYSTLTKQDIQSVIRNILITVGV” are within 0.2 log units of each other in “soluble fraction (log2)” value: -0.889 for the first, -0.959 for the second.

First: HMAPEKLVHELVGLSLRAGNLDLLAATLSAHKTVLSKESTAEYVKAGLAIEPNHLPLRVLAEQDLGWS
Second: HMDLEELSNKMNNVFESLSSDLRDIIIMSDIEGLSYEEISHKINIPIGTVRSRLHRARDLMVRVIKEN
The “soluble fraction (log2)” value of the first is lower: -0.936 for the first, -0.713 for the second.

First: HMSAISSARKEKIIEYLTDHGSARSSEIAEYVDLRPSRVRDYLGELVREDIVVAEGANRNRTYRLK
Second: HMEDQFWQNRAEMALASARRAGRIVTYAEMADAADIPAPQRIHKLTLWLEATMRQDHASGQPLRAALV
The “soluble fraction (log2)” value of the first is higher: 0.409 for the first, -0.0778 for the second.

Going from “HMKVPDVQYMNKDSAIEALTANELKYTIVEAENENVAAGVVISQSVERDSQVAPGTSVELVVSTG” to “HMDGNVPSVEGKPLSGAKYILETYGYKTGTVTEVNSEDVPAGIVISQNPARGTTLANGGSVNLQVSLG”, the “soluble fraction (log2)” value rises from -0.741 to 0.238.

Compared with “HMSKPVFQTHSVRSADSATVFDVLQTLLAGTPDARIAIDPKTNAIVAWARPETQEVIAKSIMEMEG”, “HMVSDISTQYQKIINEALDKQPEVKLADIVTMIKEQTSNKVQNGIVENVAKQMNGIEIIKIGQAKGVRRTT” is higher in “soluble fraction (log2)” value: -0.418 for the first, 0.152 for the second.

“HMDAHYMEMKGKTGTAFTMLRPAGKIDIEGQIFDAVAEAGFIEKGEAIRVVKYENAQLIVRK” and “HMSVFMIIVLKQHAPQEFVDMLMSSIKAKGVQIDVSKGARKTILGLVGNTSVIDREQIAGYEYVDKVIRV” are within 0.2 log units of each other in “soluble fraction (log2)” value: -0.32 for the first, -0.289 for the second.

Compared with “HMDFDVELTSAGTAKVKVIKAVREATGLGLKEAKDLVDNAPSIVKEGLDEAAANDLKAALEETGASVTL”, “HMEALSAREIEILQALETGASNRELAKMLFISEATVKTHLVHIYQKLGVGTRTAAITEARERRV” is lower in “soluble fraction (log2)” value: 0.239 for the first, -0.237 for the second.

“HMNGKTIEVPDITEKSIAEAQLILNQKKLRYNVVDSTRFDPAYLPFSVLTQEPEAGDEVKKNRTIYITLNP” and “HMLMRKAEVGVESLNLRHGPGTQYKVLEILPGGKSLHYLAEPRRGWVRVTTEEGTTGWTFLKFLKPE” are within 0.2 log units of each other in “soluble fraction (log2)” value: -0.0716 for the first, -0.0205 for the second.

First: HMKRTKLEEATEWLRDRLSDGVKYNGEELLREGESADMARRTLRRAAQELGVIIERERGARGRWFWSLP
Second: HMGALTGQERRAEIMNILRQSTMPLSGAALGKQLGVSRQVVVQDIALLRQSGEEIYATNRGYVTG
The “soluble fraction (log2)” value of the first is lower: 0.254 for the first, at least 0.43 for the second.

Going from “HMKEVDERPWGKYEVLLDAPDVKVKRITVNPGQRLSYQYHEKRAEVWTVVSGILTIILEDDKLFRG” to “HMELKYIDYDEALVVYAKTVTASGGGLSGVKDEGGIRKVLDFVQNDLYYPTFVDKLTYLVFGL”, the “soluble fraction (log2)” value falls from 0.0694 to -0.155.

First: HMNESADMPDVVNMSLEAAKSQLEGMGLKVKVENVEDDSVEENHVIKTSPVSGEKVKLGTTVTLTVSKGR
Second: HMDNRLFKMLYYLLDKERATAPELAAEFEVSTRTIYRDVEALSSAGIPIYAEPGRNGGIYLLQD
The “soluble fraction (log2)” value of the first is higher: -0.279 for the first, -1.1 for the second.

“HMANMTAKQINMFGDKLSRDKDFQSYYIAKSGDSREQYAQDIKGKLLDPFYVNAWMPYLEKIGFVPS” and “HMINRPVYVPLYTNLDVKDAAEIAEKLEENNIAYKLEDQGETILVNPEQKYKVRLMLAQEGLPKG” are within 0.2 log units of each other in “soluble fraction (log2)” value: 0.106 for the first, 0.168 for the second.

Compared with “HMNNDFVERLRKLFGHASMAEIARRIDVPHATIRNYFQGRLPAPEVLIKLARETGVSLNWLLTGEGKMFA”, “HMADGEWAEMQRQLTAAGLLVVGRAAQERIQRLSDISPLIEAAQRSNVVMLSERTVDEVLTLVPT” is lower in “soluble fraction (log2)” value: -0.113 for the first, -0.468 for the second.

“HMRIWTPEMIKEYIISSNGKEPLNSHYYSTNHPSIYAAAERIFGSWGNAINAAGLDYNAIRKYK” and “HMSVGDLLENLIRETRAQFSAPPESLGVAEKRRFVALLSQKGGFLLKGAVSRAASVLGVSEQTVYRYLKDS” are within 0.2 log units of each other in “soluble fraction (log2)” value: -0.0687 for the first, 0.0671 for the second.
